Assay results as given in paper PMC12859517.

Experiments:
[1] = target: Full-length MctBsm (MctB of M. smegmatis) (M. smegmatis); assay: SDS-PAGE under mild conditions with Western blot; 0.1% SDS in loading buffer, no reducing agent, not boiled, run in an ice bath; protein purified in OPOE; gel slices eluted with OPOE and run again
[2] = target: Full-length MctBsm (MctB of M. smegmatis) (M. smegmatis)

With “Full-length MctBsm (MctB of M. smegmatis) (natural protein)” the stoichiometry N [1] was over 2 and the channel insertions in lipid bilayer experiments (DphPC, 1 M KCl, 10 mM Hepes pH 7.0, 100 mV), purified MctBsm before fractionation [2] was 20 pS.
